The results in this text go back to article PMC9060471.

For assay [1], the target named is 6xHis-TLX ligand-binding domain, Q9Y466. The assay can be described thus: AlphaScreen or HTRF; ALPHA; atrophin peptide on donor beads, TLX ligand-binding domain on acceptor beads; competition with untagged atrophin peptide. For orientation: Alpha assays give light when donor and acceptor beads are brought close together.
For assay [2] the target is unchanged. The assay can be described thus: BLI; 6xHis-TLX LBD on Ni-NTA biosensors, Octet Red 96; atrophin peptide in solution. In general terms: BLI is a label-free optical method that tracks binding on a fibre tip over time.

In general, EC50 refers to the midpoint of the concentration-response curve. High values mean a need for much substance, low ones an effect from little substance. What is called Kd is the free concentration of one partner at which half of the binding sites on the other are occupied at equilibrium, for simple one-to-one binding. A lower Kd goes with higher affinity.

6xHis-TLX ligand-binding domain, Q9Y466, sequence (Q9Y466 155-385): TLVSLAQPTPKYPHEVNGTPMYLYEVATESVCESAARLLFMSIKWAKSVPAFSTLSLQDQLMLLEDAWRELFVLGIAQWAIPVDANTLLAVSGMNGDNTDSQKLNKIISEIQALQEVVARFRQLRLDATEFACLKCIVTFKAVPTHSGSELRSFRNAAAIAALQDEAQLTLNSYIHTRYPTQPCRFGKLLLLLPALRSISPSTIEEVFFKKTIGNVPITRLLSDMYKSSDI

Consider PPYADTPALRQLSEYARPHVAFSP (modifications not checked) [atrophin corepressor peptide (untagged)], for which the EC50 in assay [1] was determined as 1.3 µM. In addition, in assay [2], the Kd turned out to be 14.2 µM.
